In article PMC2742502 (Journal of immunology (Baltimore, Md. : 1950), 2008):

Tests used:
[1] = target: purified HLA A*0201 molecules (with human β2-microglobulin) (human (endogenous in EBV transformed cell lines) | human); assay: radioligand binding
PBMC = assay type: cell-based, human
[2] = test system: T cells from healthy donors; conditions: heteroclitic HLA-A0201-restricted epitope; cited from earlier work

HCV NS3 1406-1415 epitope peptide … (Lp5)
IC50 [1]: 5 nM

phytohemmaglutinin [PHA]
response in positive control (PBMC): uniformly positive

B1: Melan-A epitope (L26–35): heteroclitic HLA-A0201-restricted Melan-A epitope (peptide, UniProt Q16655 1-118, looked up, variant A27L)
Melanoma antigen recognized …: MPREDAHFIYGYPKKGHGHSYTTAEELAGIGILTVILGVLLLIGCWYCRRRNGYRALMDKSLHVGTQCALTRRCPQEGFDHRDSKVSLQEKNCEPVVPNAPPAYEKLSAEQSPPPYSP
modifications: epitope 26-35
frequency of T cells recognizing the epitope [2]: relatively frequent
